Laboratory results reported in patent publication US20260055200A1, “COMBINATION THERAPIES” (Alligator Bioscience AB, priority 2022, published 2026).

System: MB49-FFX-ACQ bladder carcinoma cells
Test: Chemotherapy-resistant MB49-FFX-ACQ tumour model in hCD40tg mice
Format: in vivo, mouse
Conditions: FIG. 7B/7C
Procedure: Note: All mice were dosed with flat doses and mg/kg doses reported herein are based on an average mouse weight of 20 g (0.02 kg).
As FOLFIRINOX is composed of four individual components, it was dosed over the course of two days, for a total of three cycles. Mice first received oxaliplatin followed by irinotecan, followed the day after by folinic acid and 2 hours after that, mice were dosed with 5-fluorouracil.
Three days following the initiation of the dosing of FOLFIRINOX, mitazalimab was administered in 5% glucose (dextrose buffer) at 5 mg/kg.
The dosing regimen applied in the two efficacy studies detailing number of doses and their relation to one another is outlined in FIG. 5. […]
On day 0, ten- to twelve-week-old female hCD40tg mice were injected subcutaneously on the right hind flank with 0.4×10^6 MB49-FOLFIRINOX-ACQ in a volume of 100 μl PBS. […] Controls or antibodies were administered as outlined in Table 24, and mice were monitored shortly following each treatment to detect potential signs of toxicity. Tumor volume was measured three times weekly with a calliper and calculated as: ((width/2×length/2×height/2)×[…]). […]
Collected data was analyzed using Kaplan Meier and Log-rank (Mantel-Cox) for survival and Mann-Whitney, non-parametric, 2-tail for FACS data and tumor growth using GraphPad Prism program (*, p<0.05; **, p<0.01). […]

B1: Mitazalimab: agonistic, human monoclonal (IgG1) antibody targeting CD40 (antibody, chains of the INN, looked up, V domains shown)
VH: EVQLLESGGGLVQPGGSLRLSCAASGFTFSTYGMHWVRQAPGKGLEWLSYISGGSSYIFYADSVRGRFTISRDNSENALYLQMNSLRAEDTAVYYCARILRGGSGMDLWGQGTLVTVSS
VL: QSVLTQPPSASGTPGQRVTISCTGSSSNIGAGYNVYWYQQLPGTAPKLLIYGNINRPSGVPDRFSGSKSGTSASLAISGLRSEDEADYYCAAWDKSISGLVFGGGTKLTVL
effect on tumour growth in chemo-resistant tumours: synergises with FOLFIRINOX
